Data published in patent CN110272489A (SHANGHAI JIANXIN BIOPHARMACEUTICALS LLC, dated 2019).
Like-named read-outs stand apart in the source and are kept apart here.

T1: 狨猴(marmoset) Tim-3蛋白 (狨猴(marmoset), UniProt F7I881 21-290)
T1 sequence: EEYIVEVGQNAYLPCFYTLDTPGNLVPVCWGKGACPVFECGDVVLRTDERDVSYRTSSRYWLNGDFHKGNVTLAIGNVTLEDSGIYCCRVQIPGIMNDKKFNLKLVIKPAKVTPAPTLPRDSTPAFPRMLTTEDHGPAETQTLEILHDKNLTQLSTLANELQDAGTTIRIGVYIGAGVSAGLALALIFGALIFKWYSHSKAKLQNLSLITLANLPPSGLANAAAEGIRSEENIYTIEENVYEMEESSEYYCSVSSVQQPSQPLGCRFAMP


Assays:
猕猴(Macaca)Tim-3蛋白 [1] = molecular target: 猕猴(Macaca)Tim-3蛋白 (猕猴(Macaca)); assay: ELISA (method of Example 3), Fig. 4a
狨猴(marmoset) Tim-3蛋白 = molecular target: T1, 狨猴(marmoset) Tim-3蛋白; assay: ELISA (method of Example 3), Fig. 4b
[2] = molecular target: T2, 人TIM-3 (recombinant antigen of the ELISA of Example 3: TIM-3-hFc captured on goat-anti-hFc, or Tim-3-his … (human, UniProt Q8TDQ0 22-202)); assay: ELISA on human TIM-3 (Example 3)
T2 construct: extracellular domain; also called 人TIM-3抗原; not shown: a His tag instead if Tim-3-his was coated

[3] = molecular target: T3, 人Tim-3 on CHO-K1 hTim-3+ cells (human, UniProt Q8TDQ0 22-301); assay: cell ELISA on fixed CHO-K1 hTim-3+ cells (Example 2)
T3 construct: whole, on cells; Mature protein 22-301; also called hTim-3+细胞; 人Tim-3+细胞

[4] = molecular target: T2, 人TIM-3 (recombinant antigen of the …); assay: ELISA on human TIM-3 (Example 3); remark: listed apart in the source
[5] = molecular target: T2, 人TIM-3 (recombinant antigen of the …); assay: ELISA on human TIM-3, against ABTIM3 as reference
[6] = molecular target: T4, 人Tim-3 (antigen, analyte of the Biacore assay of Example 7) (human, UniProt Q8TDQ0 22-199); assay: SPR, Biacore T200, antibody captured on Protein A, TIM-3 as analyte, 1:1 Langmuir
T4 construct: Antibody captured on Protein A chip, antigen TIM-3 flowed at 0-30 nM; also called 抗原TIM-3

[7] = molecular target: T4, 人Tim-3 (antigen, analyte of the Biacore …); assay: SPR, Biacore, method of Example 7
猕猴(Macaca)Tim-3蛋白 [8] = molecular target: 猕猴(Macaca)Tim-3蛋白 (猕猴(Macaca)); assay: ELISA, against ABTIM3 as reference

EC50 [3] | EC50 [4] | Binder | other results
– | 0.233 nM | 人源化ab30抗体 (antibody, human IgG4 S228P, kappa, V domains shown, Humanized, hIgG4-kappa) VH: EVQLVESGGGLVKPGGSLRLSCAASGFTFSDYYMTWVRQAPGKGLEWVSSINYDGRNTYYLDSLKSRFTISRDNAKNSLYLQMNSLRAEDTAVYYCARGYYYYGSSPNYFDYWGQGTLVTVSS VL: DIQMTQSPSSLSASVGDRVTITCRASENIYSYLTWYQQKPGKSPKLLVYNAKTLAEGVPSRFSGSGSGTQFSLTISSLQPEDFANYYCQQHYGTPLTFGQGTKLEIKR | –
– | 0.243 nM | 人源化ab24抗体 (antibody, human IgG4 S228P, kappa, V domains shown, Humanized, hIgG4-kappa) VH: EVQLVESGGGLVKPGGSLRLSCAASGFTFSDYYMTWVRQAPGKGLEWVASINYDGRNTYYLDSLKSRFTISRDNAKNILYLQMNSLRAEDTAVYYCARGYYYYGSSPNYFDYWGQGTLVTVSS VL: DIQMTQSPSSLSASVGDRVTITCRASENIYSYLTWYQQKPGKSPKLLVYNAKTLAEGVPSRFSGSGSGTQFTLTISSLQPEDFATYYCQQHYGTPLTFGQGTKLEIKR | –
– | 0.21 nM | 人源化ab23抗体 (antibody, human IgG4 S228P, kappa, V domains shown, Humanized, hIgG4-kappa) VH: EVQLVESGGGLVKPGGSLRLSCAASGFTFSDYYMTWVRQAPGKGLEWVASINYDGRNTYYLDSLKSRFTISRDNAKNILYLQMNSLRAEDTAVYYCARGYYYYGSSPNYFDYWGQGTLVTVSS VL: DIQMTQSPSSLSASVGDRVTITCRASENIYSYLTWYQQKPGKSPKLLVYNAKTLAEGVPSRFSGSGSGTQFSLTISSLQPEDFANYYCQQHYGTPLTFGQGTKLEIKR | –
0.112 nM | 0.184 nM | 人源化ab32抗体 (全人源化抗体) (antibody, human IgG4 S228P, kappa, V domains shown, Fully humanized (no back mutations), hIgG4-kappa) VH: EVQLVESGGGLVKPGGSLRLSCAASGFTFSDYYMTWVRQAPGKGLEWVSSINYDGRNTYYLDSLKSRFTISRDNAKNSLYLQMNSLRAEDTAVYYCARGYYYYGSSPNYFDYWGQGTLVTVSS VL: DIQMTQSPSSLSASVGDRVTITCRASENIYSYLTWYQQKPGKAPKLLIYNAKTLAEGVPSRFSGSGSGTDFTLTISSLQPEDFATYYCQQHYGTPLTFGQGTKLEIKR | koff [7]: 0.000296 s⁻¹; fold weaker than the positive control antibody (猕猴(Macaca)Tim-3蛋白 [8]): ~100 fold; EC50 (猕猴(Macaca)Tim-3蛋白 [1]): 11 nM

Continued, binder first:

Binder | EC50 [3] | EC50 [4] | other results
ABTIM3 (阳性对照抗体) (antibody, V domains shown) VH: QVQLQQPGAELVKPGASVKMSCKASGYTFTSYNMHWIKQTPGQGLEWIGDIYPGNGDTSYNQKFKGKATLTADKSSSTVYMQLSSLTSEDSAVYYCARVGGAFPMDYWGQGTSVTVSS VL: DIVLTQSPASLAVSLGQRATISCRASESVEYYGTSLMQWYQQKPGQPPKLLIYAASNVESGVPARFSGSGSGTDFSLNIHPVEEDDIAIYFCQQSRKDPSTFGGGTKLEIK | 0.15 to 0.23 nM | – | EC50 (猕猴(Macaca)Tim-3蛋白 [1]): 0.14 nM; EC50 (狨猴(marmoset) Tim-3蛋白): 0.4 nM; EC50 [2]: 0.376 nM
人源化ab17抗体 (antibody, human IgG4 S228P, kappa, V domains shown, Humanized, hIgG4-kappa) VH: EVQLVESGGGLVKPGGSLRLSCAASGFTFSDYYMTWVRQAPGKGLEWVASINYDGRNTYYLDSLKSRFTISRDNAKNSLYLQMNSLRAEDTAVYYCARGYYYYGSSPNYFDYWGQGTLVTVSS VL: DIQMTQSPSSLSASVGDRVTITCRASENIYSYLTWYQQKPGKSPKLLVYNAKTLAEGVPSRFSGSGSGTQFTLTISSLQPEDFATYYCQQHYGTPLTFGQGTKLEIKR | – | 0.212 nM | –
人源化ab18抗体 (antibody, human IgG4 S228P, kappa, V domains shown, Humanized, hIgG4-kappa) VH: EVQLVESGGGLVKPGGSLRLSCAASGFTFSDYYMTWVRQAPGKGLEWVASINYDGRNTYYLDSLKSRFTISRDNAKNSLYLQMNSLRAEDTAVYYCARGYYYYGSSPNYFDYWGQGTLVTVSS VL: DIQMTQSPSSLSASVGDRVTITCRASENIYSYLTWYQQKPGKAPKLLIYNAKTLAEGVPSRFSGSGSGTDFTLTISSLQPEDFATYYCQQHYGTPLTFGQGTKLEIKR | – | 0.198 nM | –
mab15-c (嵌合抗体, hIgG4-κ) (antibody, V domains shown, Chimeric antibody: mab15 variable regions with human IgG4 / kappa constant regions) VH: EVKLVESEGGLVQPGSSMKLSCTASGFTFSDYYMTWVRQVPEKGLEWVASINYDGRNTYYLDSLKSRFIISRDNAKNILYLQMSSLKSEDTATYYCARGYYYYGSSPNYFDYWGQGTTLTVSS VL: DIQMTQSPASLSASVGETVTITCRASENIYSYLTWYQQKQGKSPQLLVYNAKTLAEGVPSRFSGSGSGTQFSLRINSLQPEDFGNYYCQQHYGTPLTFGAGTKLELKR | – | 0.183 nM | EC50 [2]: 0.158 nM; fold better than the reference antibody (ratio of EC50, reference/mab15-c) [5]: 2.38 fold; Kd [6]: 0.31 nM; koff [6]: 0.000106 s⁻¹; kon [6]: 344000 M⁻¹ s⁻¹
人源化ab16 抗体 (antibody, human IgG4 S228P, kappa, V domains shown, Humanized, hIgG4-kappa) VH: EVQLVESGGGLVKPGGSLRLSCAASGFTFSDYYMTWVRQAPGKGLEWVASINYDGRNTYYLDSLKSRFTISRDNAKNSLYLQMNSLRAEDTAVYYCARGYYYYGSSPNYFDYWGQGTLVTVSS VL: DIQMTQSPSSLSASVGDRVTITCRASENIYSYLTWYQQKPGKSPKLLVYNAKTLAEGVPSRFSGSGSGTQFSLTISSLQPEDFANYYCQQHYGTPLTFGQGTKLEIKR | 0.151 nM | 0.145 nM | –
